Tests used:
[1] = target: human CD20 (human) (UniProt P11836); assay: flow cytometry, direct binding to Granta-519 (NHL/MCL) cells, labeled goat anti-human secondary
[2] = target: human CD20 (human) (UniProt P11836); assay: flow cytometry, direct binding to Nalm-6 (ALL) cells, labeled goat anti-human secondary
[3] = target: human CD20 (human) (UniProt P11836); assay: flow cytometry, direct binding to Farage (DLCL) cells, labeled goat anti-human secondary
[4] = target: human CD20 (human) (UniProt P11836); assay: flow cytometry, direct binding to Karpas-422 (NHL) cells, labeled goat anti-human secondary
[5] = target: human CD20 (human) (UniProt P11836); assay: flow cytometry, direct binding to JVM-13 (CLL) cells, labeled goat anti-human secondary
[6] = target: human CD20 (human) (UniProt P11836); assay: flow cytometry, direct binding to Toledo (DLCL) cells, labeled goat anti-human secondary
[7] = target: human CD20 (human) (UniProt P11836); assay: cell-based or functional assay
[8] = target: human CD20 (human) (UniProt P11836); assay: flow cytometry, direct binding to Namalwa (Burkitt) cells, labeled goat anti-human secondary
[9] = target: human CD20 (human) (UniProt P11836); assay: flow cytometry, direct binding to Raji (Burkitt) cells, labeled goat anti-human secondary
[10] = target: T1, human CD19 (human, UniProt P15391 20-556); assay: cell-based or functional assay
T1 sequence (looked up): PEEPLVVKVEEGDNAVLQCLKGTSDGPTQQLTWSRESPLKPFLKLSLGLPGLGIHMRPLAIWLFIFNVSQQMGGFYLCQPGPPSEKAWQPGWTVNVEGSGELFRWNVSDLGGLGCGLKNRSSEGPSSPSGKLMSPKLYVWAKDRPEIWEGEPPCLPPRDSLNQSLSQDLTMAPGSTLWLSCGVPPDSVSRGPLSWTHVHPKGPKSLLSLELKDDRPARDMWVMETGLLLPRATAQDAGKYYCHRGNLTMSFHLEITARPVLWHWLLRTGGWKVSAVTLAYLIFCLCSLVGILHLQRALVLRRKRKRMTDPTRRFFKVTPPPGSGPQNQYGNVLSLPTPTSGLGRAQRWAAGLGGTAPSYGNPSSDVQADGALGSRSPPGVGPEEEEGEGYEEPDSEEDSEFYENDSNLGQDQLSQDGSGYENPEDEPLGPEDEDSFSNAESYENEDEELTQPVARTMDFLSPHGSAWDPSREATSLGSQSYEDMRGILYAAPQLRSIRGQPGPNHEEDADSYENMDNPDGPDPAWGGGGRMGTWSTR

Chain of human CD20 (human) (P11836 whole entry): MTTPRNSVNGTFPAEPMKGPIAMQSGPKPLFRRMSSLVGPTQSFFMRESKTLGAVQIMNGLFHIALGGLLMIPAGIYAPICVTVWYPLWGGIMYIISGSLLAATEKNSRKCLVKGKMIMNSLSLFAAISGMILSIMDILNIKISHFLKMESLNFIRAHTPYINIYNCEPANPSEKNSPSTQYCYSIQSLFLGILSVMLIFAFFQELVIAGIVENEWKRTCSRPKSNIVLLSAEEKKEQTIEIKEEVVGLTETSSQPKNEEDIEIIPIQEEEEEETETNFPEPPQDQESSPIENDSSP

## rituximab (antibody)
[1]
  MFI at 1 µg/ml: 403 MFI
[2]
  MFI at 1 µg/ml: 26 MFI
[3]
  MFI at 1 µg/ml: 581 MFI
[4]
  MFI at 1 µg/ml: 45 MFI
[5]
  MFI at 1 µg/ml: 60 MFI
[6]
  MFI at 1 µg/ml: 312 MFI
[7]
  % max. cell kill at 10 ug/ml, DB (DLCL) cells: 46%
  % max. cell kill at 10 ug/ml, Daudi (Burkitt) cells: 51%
  % max. cell kill at 10 ug/ml, Farage (DLCL) cells: 54%
  % max. cell kill at 10 ug/ml, JVM-2 (CLL) cells: 49%
  % max. cell kill at 10 ug/ml, JVM-13 (CLL) cells: 50%
  % max. cell kill at 10 ug/ml, Karpas-422 (NHL) cells: 5%
  % max. cell kill at 10 ug/ml, MeC2 (CLL) cells: 42%
  % max. cell kill at 10 ug/ml, Nalm-6 (ALL) cells: 14%
  % max. cell kill at 10 ug/ml, Namalwa (Burkitt) cells: 7%
  % max. cell kill at 10 ug/ml, Raji (Burkitt) cells: 40%
  % max. cell kill at 10 ug/ml, Toledo (DLCL) cells: 55%
  ADCC EC50 [ng/ml], DB (DLCL) cells: 0.24 ng/mL
  ADCC EC50 [ng/ml], Daudi (Burkitt) cells: 0.041 ng/mL
  ADCC EC50 [ng/ml], Farage (DLCL) cells: 0.0113 ng/mL
  ADCC EC50 [ng/ml], JVM-2 (CLL) cells: 0.0586 ng/mL
  ADCC EC50 [ng/ml], JVM-13 (CLL) cells: 0.0317 ng/mL
  ADCC EC50 [ng/ml], Karpas-1106P cells: 0.0137 ng/mL
  ADCC EC50 [ng/ml], MeC2 (CLL) cells: 0.007 ng/mL
  ADCC EC50 [ng/ml], RL (NHL) cells: 0.0296 ng/mL
  ADCC EC50 [ng/ml], Raji (Burkitt) cells: 0.008 ng/mL
  ADCC EC50 [ng/ml], Toledo (DLCL) cells: 0.0319 ng/mL
  EC50, FACS-based ADCC assay with patient CLL samples: 0.639 to 0.682 nM
[8]
  MFI at 1 µg/ml: 298 MFI
[9]
  MFI at 1 µg/ml: 823 MFI

B1: afucosylated anti-CD19 mAb 16C4 (16C4-afuc) (antibody, IgG1, V domains shown)
VH: EVQLVESGGGLVQPGGSLRLSCAASGFTFSSSWMNWVRQAPGKGLEWVGRIYPGDGDTNYNVKFKGRFTISRDDSKNSLYLQMNSLKTEDTAVYYCARSGFITTVRDFDYWGQGTLVTVSS
VL: EIVLTQSPDFQSVTPKEKVTITCRASESVDTFGISFINWFQQKPDQSPKLLIHEASNQGSGVPSRFSGSGSGTDFTLTINSLEAEDAATYYCQQTKEVPFTFGGGTKVEIK
[10]
  ADCC EC50 [ng/ml], Daudi (Burkitt) cells: 0.0031 ng/mL
  ADCC EC50 [ng/ml], Farage (DLCL) cells: 0.0141 ng/mL
  ADCC EC50 [ng/ml], JVM-2 (CLL) cells: 0.188 ng/mL
  ADCC EC50 [ng/ml], JVM-13 (CLL) cells: 0.0368 ng/mL
  ADCC EC50 [ng/ml], Karpas-422 (NHL) cells: 0.0181 ng/mL
  ADCC EC50 [ng/ml], Karpas-1106P cells: 0.009 ng/mL
  ADCC EC50 [ng/ml], MeC2 (CLL) cells: 0.0039 ng/mL
  ADCC EC50 [ng/ml], Nalm-6 (ALL) cells: 0.0199 ng/mL
  ADCC EC50 [ng/ml], Namalwa (Burkitt) cells: 0.012 ng/mL
  ADCC EC50 [ng/ml], Oci-LY19 (DLCL) cells: 0.0163 ng/mL
  ADCC EC50 [ng/ml], RL (NHL) cells: 0.0073 ng/mL
  ADCC EC50 [ng/ml], Raji (Burkitt) cells: 0.003 ng/mL
  ADCC EC50 [ng/ml], Toledo (DLCL) cells: 0.0075 ng/mL
